Experiment: soluble on expression in E. coli; label from the status in PepcDB or PDB records

Sequence	soluble on expression in E. coli
MSLESGFLEDAQANLTLRNFYFNRNFTNPTKAQGKAEEWTQSFILDAKSGFTQGTVGFGMDVLGLYSLKLDGGKGTGGTQLLPLDHDGRPADNFGRLGVAFKARLSQTEVKVGEWMPVLPILRSDDGRSLPQTFRGGQITSKEIAGLTLYGGQFRANSPRDDSSMSDMSMFGKAAFTSDRFNFQGAEYAFNDKRTQIALWNAQLKDIYSQQFINLIHSQPLGDWTLGANLGFFYGKEDGSARAGDMENRTWSGLFSAKYGGNTFYVGLQKLTGDSAWMRVNGTSGGTLANDSYNASYDNAKEKSWQVRHDYNFAALGVPGLTLMNRYISGSNVHTATVSDGKEWGRESEVAYTVQSGTLKNLNLKWRNSTMRRDFSNNEFDENRLIISYPLSLLEGHHHHHH	soluble
MVERYSLSPMKDLWTEEAKYRRWLEVELAVTRAYEELGMIPKGVTERIRNNAKIDVELFKKIEEKTNHDVVAFVEGIGSMIGEDSRFFHYGLTSSDVLDTANSLALVEAGKILLESLKEFCDVLWEVANRYKHTPTIGRTHGVHAEPTSFGLKVLGWYSEMKRNVQRLERAIEEVSYGKISGAVGNYANVPPEVEEKALSYLGLKPEPVSTQVVPRDRHAFYLSTLAIVAAGIERIAVEIRHLQRTEVLEVEEPFRKGQRGSSAMPHKKNPITCERLTGLSRMMRAYVDPSLENIALWHERDISHSSVERYVFPDATQTLYYMIVTATNVVRNMKVNEERMKKNIDLTKGLVFSQRVLLKLIEKGLTRKEAYDIVQRNALKTWNSEKHFLEYLLEDEEVKKLVTKEELEELFDISYYLKHVDHIFERFEKE	soluble
MRNICFVACMLFCLASASGKTVKNHPFVSIADSILDNVLNLYQTEDGLLTETYPVNPDQKITYLAGGAQQNGTLKASFLWPYSGMMSGCVAMYQATGDKKYKTILEKRILPGLEQYWDGERLPACYQSYPVKYGQHGRYYDDNIWIALDYCDYYRLTKKADYLKKAIALYEYIYSGWSDELGGGIFWCEQQKEAKHTCSNAPSTVLGVKLYRLTKDKKYLNKAKETYAWTRKHLCDPDDFLYWDNINLKGKVSKDKYAYNSGQMIQAGVLLYEETGDKDYLRDAQKTAAGTDAFFRSKADKKDPSVKVHKDMSWFNVILFRGFKALEKIDHNPTYVRAMAENALHAWRNYRDANGLLGRDWSGHNEEPYKWLLDNACLIELFAEIEKLEHHHHHH	not soluble
MGHHHHHHSHMWTPTEEEKYGVVICSFRGSVPQGLVLEIGETVQILEKCEGWYRGVSTKKPNVKGIFPANYIHLKKAIVSNRGQYETVVPLEDSIVTEVTATLQEWASLWKQLYVKHKVDLFYKLRHVMNELIDLRRQLLSGHLTQDQVREVKRHITVRLDWGNEHLGLDLVPRKDFEVVDSDQISVSDLYKMHL	not soluble
MGSDKIHHHHHHMTVLIIGMGNIGKKLVELGNFEKIYAYDRISKDIPGVVRLDEFQVPSDVSTVVECASPEAVKEYSLQILKNPVNYIIISTSAFADEVFRERFFSELKNSPARVFFPSGAIGGLDVLSSIKDFVKNVRIETIKPPKSLGLDLKGKTVVFEGSVEEASKLFPRNINVASTIGLIVGFEKVKVTIVADPAMDHNIHIVRISSAIGNYEFKIENIPSPENPKTSMLTVYSILRTLRNLESKIIFG	soluble
MAAATTTASAFKWPWQYDFPPFFTIQKSLNTKDKQLEAWARLVIDYAQHNKIYSLDIAEATTSELFNNQKLNRRLSTDGVNTVLQYLEQKKLIEFTDNGRTRFHIFWRRPDVWANMIYQWAVENAFINTPLTLYEITHGDDTTNESFHNLEREILMKALTCLEEQRRAQLMNIGGDNEGVKFI	soluble
VTQLPQPTWRWWQQRETEQVQSSHIDGEIVGALIPDLAVLHSEDASRAAVGREKHRCSLDPLGGGFRSRRASMPAGALLLSAVIAIQLDRMNARVFGDGWIGAQACMWVNKFHEESTVTALSPSSPIAQGSIARHPETMQSAYVRIAEGGSRDVAPAAQLQRRRP	not soluble
NNINVITDQMGNLDIKSNDNINQNTQNSNVASDLNLLTQNKYLENILMMNTYGVNYDHLFLPQNVAYLAAQQLSNNIMNNRNQINAAYTSQQYPNQSIPIKNIYDQSHLKYQQNSSSWRPPLNNGNIYDGVKSNPMGLHILQNGIDLYTNVDSNSVTSAINFDKYDSIPVSVTGPDYSATNVIENFDELKLDPTIRNNILLASYQRPTPIQKNAIPAILEHRDIMACAQTGSGKTAAFLIPIINHLVCQDLNQQRYSKTAYPKCLILAPTRELAIQILSESQKFSLNTPLRSCVVYGGADTHSQIREVQMGCHLLVATPGRLVDFIEKNKISLEFCKYIVLDEADRMLDMGFEPQIRKIIEESNMPSGINRQTLMFSATFPKEIQKLAADFLYNYIFMTVGRVGSTSDSIKQEIIYMTDVEKLNYLKNIFNTTAPNTLILIFVETKKGADSLARFLLSKGYPVSSIHGDRSQVEREAALSMFRNGQCPILVATAVAARGLDIPNVKHVINYDLPSDIEEYVHRIGRTGRLGNHGRATSFYVDKNNNIAIDLVDLLKEANQIVPQWLSALADELKRNSTMGSNNKRHNQRRYKNGNFGGRDYRQGPSNVNMNSGVNPDYFISGSVAPRHAKLNNGNYFPRSNELHDQHQKQNNNNNQVISNTFHTGISASHLIPGYATFNRQQAPLHFIPHQTNNTQFLSSSGQMALYNRMQNSGHMAPNQRFPNEPIHHQQEQLPITYNFSKNLPYLGQSYSGHNNNNNNNNNTSKINDSDSCYFGNKTPR	soluble
MAHHHHHHMPQCGTEKHVSAPPSYTGPFVAVVVDLDGTILDDNHRVSDVTKATLYEVASCGVHIIIATGRPREGVAAIEQELNSYFRCNSRVPGRATSLAEVKGFHLVASNGARIYNTTGELISAESIDNSVVRAIYERVTESNINANSEDSMLVSVHQTGAWWVNNVLPEEWLRRKYGTLPEVRQNLSDFPTDGVGKICLRSFNEGTLRTFQKELDTKYEHYITTVMTSDHCLDIMPKGVSKASALRMVGEILNFEPHRDAIAFGDSLNDRDMLESVAKGCIMKNGKNELKELLPHVEVVGCNEEDGVAHKLREVFLLS	not soluble
SEEDNRAPQLWRKTLTAPAPFADETNCQCQAPHEKLTIAQARLGTPADRPVRVYADGIFDLFHSGHARALMQAKTLFPNSYLLVGVCSDDLTHKFKGFTVMNEAERYEALRHCRYVDEVIRDAPWTLTPEFLEKHKIDFVAHDDIPYSSAGSDDVYKHIKEAGMFVPTQRTEGISTSDIITRIVRDYDVYARRNLQRGYTAKELNVSFINEKRYRFQNQVDKMKEKVKNVEERSKEFVNRVEEKSHDLIQKWEEKSREFIGNFLELFGPDGAWKQMFQERSSRMLQALSPKQSPVSSPTRSRSPSRSPSPTFSWLPLKTSPPSSPKAASASISSMSEGDEDEK	soluble
MGSDKIHHHHHHMSDPGQPTLDQLRVFIAVVETGSFAAAARKLNRATSVISYTIANLEAQLGVTLFDRLSTKKPQLTLEGRTVLAEARSVSNGIDNLRAKVKSMLRGIEPEVHLALDVMLPASRVMDALKAFRKEFPSVSLRLYVEALGAVTQIVLNRTATVGISGPLDVDVLGLERIGVGFVQLVPVAAPDHPLAGGSHAPGAARSHIQLVLTDRSPLTQGHEFAVVGTHTWRLADLGAKHMLLKEGIGWGNMPEPMVRDDLADGRLVQLDLPDCKGGPYRLQAIYRTDTPPGPAGRFLIEHFQAQDAKTPTTAW	not soluble
MGHHHHHHSHMEPRVTQRKRPLDGCMGKITGITSDILKYDHKCFKLSLPAKFPEVCGSDEVFPDPDLLHVLPVAGSLQQSIDQCCLQLESLCRPGLLCAHPTLLFKLHSSMKNRPFFSLIYTYVKKTQQVRKRDRKPRGQVAAGPNPTSVM	not soluble
MDRDWGGKTGGGGVASSEQTEVSRRERLRQLALETIDLKKDPYFMRNHLGGYECKLCLTLHTNEGNYLAHTQGRRHQMNLARRAAREAKEKPQTVAPPPKIVPKKTIKIGRPGYRIIKQRDPETDQLSLLFQIQYPEIAEDVQPRHRFMSSFEQKVERPDPKYQFLLFAAEPYETIAFKIPNWEIEKSEGNYYLHWDKDNKTFTLQIYFKPRSQPPVKNQQEIPSQQASVGNLMKQQRDPFAPIAFGT	soluble
